Paper PMC4873334 (Neuron, 2016)

B1: Pcdh α4 EC1–4 (mouse clustered protocadherin α4, extracellular cadherin domains 1–4) (domain or fragment)
chain: QIHYSIPEEAKHGTFVGRIAQDLGLELTELVPRLFRVASKDRGDLLEVNLQNGILFVNSRIDREELCGRSAECSIHLEVIVDRPLQVFHVEVEVRDINDNPPRFPTTQKNLFIAESRPLDTWFPLEGASDADIGINAVLTYRLSPNDYFSLEKPSNDERVKGLGLVLRKSLDREETPEIILVLTVTDGGKPELTGSVQLLITVLDANDNAPVFDRSLYTVKLPENVPNGTLVVKVNASDLDEGVNGDIMYSFSTDISPNVKYKFHIDPVSGEIIVKGYIDFEECKSYEILIEGIDKGQLPLSGHCKVIVQVEDINDNVPELEFKSLSLPIRENSPVGTVIALISVSDRDTGVNGQVTCSLTSHVPFKLVSTFKNYYSLVLDSALDRETTADYKVVVTARDGGSPSLWATASVSVEVADVND
modifications: N- and O-linked glycans; O-mannose on T409, S411 and S413 (EC4)
B2: Pcdh β6 EC1–4 (mouse clustered protocadherin β6, extracellular cadherin domains 1–4) (domain or fragment)
chain: EAIRYSIPEETESGYLVAHLAKDLGFRVGELATRRARIHHRGNKELLQLDVETGNLLLKEKPDREALCGATEPCVLHFQIILENPVQFFQTELQLTDINDHSPEFPDTEMLLKIQESTQPATVFLLKAAQDSDIGSNAVQNYTVSPNLHFHVVTLSRSDGRKYPELVLDRALDREEQPELTLILTALDGGAPPKSGTTTVRIEVVDINDNAPEFVQSLYSVEVPENSPLDALVVTVSARDLDAGIHGNVAYSLFQGGGGPQPFVIDEITGEIRLKGALDFEATSYYTMEIVATDSGGLSGKCTVAIQVLDVNDNAPKLTISSLTSSIPENAPEAVVAVFSVSDPDSGDNGRMVCSIQNELPFLLKPTFENYYTLAAEGPLDREIREEYNITIIVSDLGTPRLTTQHTITVQVVDIND
modifications: N- and O-linked glycans; O-mannose at positions 194 and 196 (α7 numbering) of EC2
B3: Pcdh β8 EC1–4 (mouse clustered protocadherin β8, extracellular cadherin domains 1–4) (domain or fragment)
chain: EAISYSMPEETESGYLVANLAQDLGLRVGELTTRGARIHHNGNKELLQLDAERGNLLLKEKPDREALCGATEPCVLHFQIILENPVQFFQTDLQFTDINDHFPEFPDTEMLLKIQEIAQPGTVFPLKAAQDPDIGSNAVQNYTVSPNLHFHVVTLSRSDDRKYPELVLDRALDREEQPELTLILTALDGGAPPKSGTTTVRIEVVDINDNAPQFLQSLYAVEVPENSPLNALVVTVSARDLDAGIHGNVAYSLFQGGGGPQPFVIDEITGEIRLKGALDFEATSYYTMEIVATDSGGLSGKCTVAIQVLDVNDNAPKLTISSLTSSIPENAPEAVVAVFSVSDPDSGDNGRMVCSIQNGLPFLLKPTFKNFYTLVTERPLDRESNAEYNITITVSDLGTPRLTTQHTITVQVSDINDN
modifications: N- and O-linked glycans; O-mannose at positions 194 and 196 (α7 numbering) of EC2 and on T199
B4: Pcdh α7 EC1–5 (mouse clustered protocadherin α7, extracellular cadherin domains 1–5) (domain or fragment)
chain: QLHYSVPEEAKHGTFVGRIAQDLGLELTELVPRLFRVASKDRGDLLEVNLQNGILFVNSRIDREELCGRSAECSIHLEVIVDRPLQVFHVEVEVKDINDNPPMFPATQKALFILESRLLDSRFPLEGASDADVGSNALLTYRLSTNEHFSLDVPPNHEQVKPLGLVLRKPLDREEAAEIRLLLTATDGGKPELTGTVQLLITVLDVNDNAPVFDRSLYTVKLPENVPNGTLVIKVNASDLDEGVNGDVMYSFSSDVSSDIKSKFHMDTVSGEITVIGIIDFEESKAYKIPLEARDKGFPQLPGHCTILVEVVDANDNAPQLTVSSLSLPVSEDSQPGRVVTLISVFDRDSGANGQVTCSLTPHIPFKLVSTFKNYYSLVLDSALDRETIANYDVIVTARDGGSPSLWATASVSVEVADVNDNAPLFAQPEYTVFVKENNPPGAHIFTVSAMDADAQENALVSYSLVERRVGERLLSSYVSVHAESGKVFALQPLDHEELELLQFQVSARDAGVPALGSNVTLQVFVLDEND
modifications: N- and O-linked glycans; O-mannose at positions 194 and 196 (EC2), T409 (EC4) and S449 (EC5)

Legend:
[1] = molecular target: Pcdhα7 EC1-5 (Mus musculus) (UniProt Q91Y13); conditions: cited from earlier work
AUC = molecular target: the molecule itself; test: AUC

Molecule	Kd [1]	Kd (AUC)	stoichiometry N (AUC)
Pcdhα7 EC1-5 (from UniProt Q91Y13)	2.91 µM	–	–
B1	–	0.037 ± 0.0082 µM	2
B2	–	16.3 ± 2.08 µM	2
B3	–	24 ± 0.43 µM	2
B4	–	–	2
